Measurements published in patent US20250129329A1, “CULTURE MEDIUM FOR HEPATOMA ORGANOID CULTURE, HEPATOMA ORGANOID CULTURE METHOD, AND APPLICATION THEREOF” (PRECEDO PHARMACEUTICALS CO., LTD, priority 2021, published 2025).

Test system: hepatoma organoids isolated from liver cancer tissue
Experiment: Effects of medium additives on proliferation of hepatoma organoids (Example 1)
Format: cell-based, human
Conditions: additive in basic medium at the final concentration; organoid diameters after 7 days compared with Basic Medium
Procedure: First, a basic medium containing initial medium was prepared. […] In this embodiment, the formulation of the basic medium is: DMEM/F12 medium (purchased from Corning)+100 μg/mL Primocin (purchased from InvivoGen, 0.2% (v/v), commercial product has a concentration of 50 mg/ml).
Different types of additives (see Table 1) were added to the basic medium to prepare culture mediums for hepatoma organoid with different components.
Tissue samples (intraoperative) of liver cancer solid tumor were obtained from patients by professional medical practitioner of professional medical institutions, and all patients have signed the informed consent. Intraoperative samples having the size of 0.25 cm3 were stored and transported using commercial tissue preservation solution (manufacturer: Miltenyi Biotec).
• 3.1. Tissue samples were transferred from the ultra-clean workbench to a culture dish, and the tissue with blood was removed. […] The completion of digestion was determined via observation every 30 minutes, based on the existing of visible particles or not. • 3.4. […]
The primary liver cancer cells obtained in the above steps were resuspended with pre-cooled DMEM/F12 and counted. […] After 7 days, the cultured organoids were photographed and the diameters of the organoids were measured and compiled, so as to compare the promoting effects of various factors on the proliferation of hepatoma organoids. […]

B1: R-spondin1: R-spondin family protein, medium additive, supplier R&D (protein, UniProt Q2MKA7 21-263, looked up)
R-spondin-1: SRGIKGKRQRRISAEGSQACAKGCELCSEVNGCLKCSPKLFILLERNDIRQVGVCLPSCPPGYFDARNPDMNKCIKCKIEHCEACFSHNFCTKCKEGLYLHKGRCYPACPEGSSAANGTMECSSPAQCEMSEWSPWGPCSKKQQLCGFRRGSEERTRRVLHAPVGDHAACSDTKETRRCTVRRVPCPEGQKRRKGGQGRRENANRNLARKESKEAGAGSRRRKGQQQQQQQGTVGPLTSAGPA
Level of promoting proliferation: +
